To fix the notation:
B1: mAb 222 (antibody, V domains shown)
VH: EVQLVESGGGLIQPGGSLRLSCAASGLTVSSNYMSWVRQAPGKGLEWVSVIYSGGSTFYADSVKGRFTISRDNSKNTLYLQMNSLGAEDTAVYYCARGEGSPGNWFDPWGQGTLVTVSS
VL: DVVMTQSPGTLSLSPGERATLSCRASQSVPSSYLAWYQQKPGQAPRLLIYGASTRATGIPDRFSGSGSGTDFTLTISRLEPEDFAVYYCQHYDTSPRFGGGTKVDIK
notes: copies: 2 + 2
B2: REGN10987 (antibody, V domains shown)
VH: QVQLVESGGGVVQPGRSLRLSCAASGFTFSNYAMYWVRQAPGKGLEWVAVISYDGSNKYYADSVKGRFTISRDNSKNTLYLQMNSLRTEDTAVYYCASGSDYGDYLLVYWGQGTLVTVSS
VL: QSALTQPASVSGSPGQSITISCTGTSSDVGGYNYVSWYQQHPGKAPKLMIYDVSKRPSGVSNRFSGSKSGNTASLTISGLQSEDEADYYCNSLTSISTWVFGGGTKLTVL
notes: source: provided by AstraZeneca; copies: 2 + 2
B3: mAb 316 (antibody, V domains shown)
VH: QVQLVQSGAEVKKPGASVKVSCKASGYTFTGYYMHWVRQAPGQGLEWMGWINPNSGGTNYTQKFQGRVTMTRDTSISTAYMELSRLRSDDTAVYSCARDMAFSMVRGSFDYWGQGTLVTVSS
VL: QAVLTQPPSASGSPGQSVTISCTGTSSDVGGYNYVSWYQQHPGKAPKLMIYEVSKRPSGVPDRFSGSKSGNTASLTVSGLQAEDEADYYCSSYAGSNHWVFGGGTKLTVL
notes: copies: 2 + 2
B4: mAb 278 (antibody, V domains shown)
VH: QVQLVQSGAEVKKPGASVKVSCKASGYIFIRYGISWVRQAPGQGLEWMGWISANNGYTNYAQKLQGRVTMTTDTSTSTAYMELRSLRSDDTAVYYCARDGGILTGYLDYFDHWGQGTLVTVSS
VL: DIQMTQSPSSLSASVGDRLTITCRASQSIASYLNWYQQKPGKAPKLLIYAASSLQSGVPSRFSGSGSGTDFTLTISSLQPEDFATYHCQQSYSTLGITFGPGTKVDIK
notes: copies: 2 + 2
B5: mAb 88 (antibody, V domains shown)
VH: QLQLQESGPGLVKPSQTLSLTCTVSGGSISSGSYNWTWIRQPAGKGLEWIGRIYNSGSTNYNPSLKSRVTISVDTSKNQLSLKVRSVTAADTAVYYCARHCSGGTCYPKYYYGMDVWGQGTTVTVSS
VL: QSALTQPPSVSEAPRQRVTISCSGSSSNIGNNAVNWYQQFPGKAPKLLIYYDDLLPSGVSDRFSGSKSGTSASLAISGVQSEDEADYYCAAWDDSLNVVVFGGGTKLTVL
notes: copies: 2 + 2

As usually defined, the Kd is the equilibrium constant for the complex coming apart.

In the assay the target is T1, His-tagged SARS-CoV-2 RBD T478K (SARS-CoV-2, Wuhan-Hu-1 RBD with T478K, T478K).
T1 construct: not shown: His6, N-terminal, kept
Put plainly: BLI. The note with it: both partners purified.
B1 yielded a Kd of 0.2 nM.
The molecule B2 showed a Kd of 0.35 nM. This Kd is about 1.7-fold higher than that of the molecule before.
With B3 the figure was 0.69 nM; with B4, 1.5 nM; with B5, 2.4 nM.

(Values after article PMC8218332 (Cell, 2021).)
